This assay has as its target human corticotropin-releasing factor 2α (CRF2 α receptor) (human), Q13324. The experiment in a line: cell-based or functional assay.

Starred links: 1 amine or outer side, 2 acyl side, 3 side chain; linkers in the order of their positions; H or OH if unused. Non-standard residues stand in square brackets, D forms with d. Groups on a side chain read outwards from the residue. No end group written: not given here. *: point of attachment. C18 diacid = O=C(O)CCCCCCCCCCCCCCCCC(=O)*; γGlu = O=C(O)[C@H](CCC(=O)[*:2])N[*:1]; Palmitoyl = CCCCCCCCCCCCCCCC(=O)*; AEEA = NCCOCCOCC(=O)O; Aib = CC(C)(N)C(=O)O

Chain of human corticotropin-releasing factor 2α (CRF2 α receptor) (human), Q13324 (Q13324 20-411): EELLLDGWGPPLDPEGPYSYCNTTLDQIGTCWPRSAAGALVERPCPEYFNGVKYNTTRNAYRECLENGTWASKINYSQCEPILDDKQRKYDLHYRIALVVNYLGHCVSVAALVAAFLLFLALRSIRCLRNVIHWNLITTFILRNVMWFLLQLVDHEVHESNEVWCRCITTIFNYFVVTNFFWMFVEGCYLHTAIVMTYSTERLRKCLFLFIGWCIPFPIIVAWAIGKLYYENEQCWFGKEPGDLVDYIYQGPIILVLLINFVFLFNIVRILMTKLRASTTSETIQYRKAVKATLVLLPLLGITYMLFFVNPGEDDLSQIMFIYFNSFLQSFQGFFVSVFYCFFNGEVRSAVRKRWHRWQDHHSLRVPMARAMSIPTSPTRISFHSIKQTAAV

B1: SEQ ID NO: 88 (peptide)
peptide: IVLSLDVPIKLK([AEEA-AEEA-γGlu-C18 diacid])QILLKQERQKKQREKAKTN[Aib]QILAQV-NH2
modifications: N-terminus assumed
SMILES: CC[C@H](C)[C@H](N)C(=O)N[C@H](C(=O)N[C@@H](CC(C)C)C(=O)N[C@@H](CO)C(=O)N[C@@H](CC(C)C)C(=O)N[C@@H](CC(=O)O)C(=O)N[C@H](C(=O)N1CCC[C@H]1C(=O)N[C@H](C(=O)N[C@@H](CCCCN)C(=O)N[C@@H](CC(C)C)C(=O)N[C@@H](CCCCNC(=O)COCCOCCNC(=O)COCCOCCNC(=O)CC[C@H](NC(=O)CCCCCCCCCCCCCCCCC(=O)O)C(=O)O)C(=O)N[C@@H](CCC(N)=O)C(=O)N[C@H](C(=O)N[C@@H](CC(C)C)C(=O)N[C@@H](CC(C)C)C(=O)N[C@@H](CCCCN)C(=O)N[C@@H](CCC(N)=O)C(=O)N[C@@H](CCC(=O)O)C(=O)N[C@@H](CCCNC(=N)N)C(=O)N[C@@H](CCC(N)=O)C(=O)N[C@@H](CCCCN)C(=O)N[C@@H](CCCCN)C(=O)N[C@@H](CCC(N)=O)C(=O)N[C@@H](CCCNC(=N)N)C(=O)N[C@@H](CCC(=O)O)C(=O)N[C@@H](CCCCN)C(=O)N[C@@H](C)C(=O)N[C@@H](CCCCN)C(=O)N[C@H](C(=O)N[C@@H](CC(N)=O)C(=O)NC(C)(C)C(=O)N[C@@H](CCC(N)=O)C(=O)N[C@H](C(=O)N[C@@H](CC(C)C)C(=O)N[C@@H](C)C(=O)N[C@@H](CCC(N)=O)C(=O)N[C@H](C(N)=O)C(C)C)[C@@H](C)CC)[C@@H](C)O)[C@@H](C)CC)[C@@H](C)CC)C(C)C)C(C)C
As to B1, the EC50 [nM], 0% HSA is 0.68 nM and the EC50 [nM], 0.1% HSA worked out at 25.7 nM.

B2: SEQ ID NO: 85 (peptide)
peptide: IVLSLDVPIKLK([AEEA-AEEA-γGlu-C18 diacid])QILLKQERQKKQREQAETNKQILAQV-NH2
modifications: N-terminus assumed
SMILES: CC[C@H](C)[C@H](N)C(=O)N[C@H](C(=O)N[C@@H](CC(C)C)C(=O)N[C@@H](CO)C(=O)N[C@@H](CC(C)C)C(=O)N[C@@H](CC(=O)O)C(=O)N[C@H](C(=O)N1CCC[C@H]1C(=O)N[C@H](C(=O)N[C@@H](CCCCN)C(=O)N[C@@H](CC(C)C)C(=O)N[C@@H](CCCCNC(=O)COCCOCCNC(=O)COCCOCCNC(=O)CC[C@H](NC(=O)CCCCCCCCCCCCCCCCC(=O)O)C(=O)O)C(=O)N[C@@H](CCC(N)=O)C(=O)N[C@H](C(=O)N[C@@H](CC(C)C)C(=O)N[C@@H](CC(C)C)C(=O)N[C@@H](CCCCN)C(=O)N[C@@H](CCC(N)=O)C(=O)N[C@@H](CCC(=O)O)C(=O)N[C@@H](CCCNC(=N)N)C(=O)N[C@@H](CCC(N)=O)C(=O)N[C@@H](CCCCN)C(=O)N[C@@H](CCCCN)C(=O)N[C@@H](CCC(N)=O)C(=O)N[C@@H](CCCNC(=N)N)C(=O)N[C@@H](CCC(=O)O)C(=O)N[C@@H](CCC(N)=O)C(=O)N[C@@H](C)C(=O)N[C@@H](CCC(=O)O)C(=O)N[C@H](C(=O)N[C@@H](CC(N)=O)C(=O)N[C@@H](CCCCN)C(=O)N[C@@H](CCC(N)=O)C(=O)N[C@H](C(=O)N[C@@H](CC(C)C)C(=O)N[C@@H](C)C(=O)N[C@@H](CCC(N)=O)C(=O)N[C@H](C(N)=O)C(C)C)[C@@H](C)CC)[C@@H](C)O)[C@@H](C)CC)[C@@H](C)CC)C(C)C)C(C)C
B2 came in with an EC50 [nM], 0% HSA of 0.1 nM and an EC50 [nM], 0.1% HSA of 3.58 nM.

B3: SEQ ID NO: 86 (peptide)
peptide: IVLSLDVPIKLK([AEEA-AEEA-γGlu-C18 diacid])QILLKQERQKKQREQAKTNKQILAQV-NH2
modifications: N-terminus assumed
SMILES: CC[C@H](C)[C@H](N)C(=O)N[C@H](C(=O)N[C@@H](CC(C)C)C(=O)N[C@@H](CO)C(=O)N[C@@H](CC(C)C)C(=O)N[C@@H](CC(=O)O)C(=O)N[C@H](C(=O)N1CCC[C@H]1C(=O)N[C@H](C(=O)N[C@@H](CCCCN)C(=O)N[C@@H](CC(C)C)C(=O)N[C@@H](CCCCNC(=O)COCCOCCNC(=O)COCCOCCNC(=O)CC[C@H](NC(=O)CCCCCCCCCCCCCCCCC(=O)O)C(=O)O)C(=O)N[C@@H](CCC(N)=O)C(=O)N[C@H](C(=O)N[C@@H](CC(C)C)C(=O)N[C@@H](CC(C)C)C(=O)N[C@@H](CCCCN)C(=O)N[C@@H](CCC(N)=O)C(=O)N[C@@H](CCC(=O)O)C(=O)N[C@@H](CCCNC(=N)N)C(=O)N[C@@H](CCC(N)=O)C(=O)N[C@@H](CCCCN)C(=O)N[C@@H](CCCCN)C(=O)N[C@@H](CCC(N)=O)C(=O)N[C@@H](CCCNC(=N)N)C(=O)N[C@@H](CCC(=O)O)C(=O)N[C@@H](CCC(N)=O)C(=O)N[C@@H](C)C(=O)N[C@@H](CCCCN)C(=O)N[C@H](C(=O)N[C@@H](CC(N)=O)C(=O)N[C@@H](CCCCN)C(=O)N[C@@H](CCC(N)=O)C(=O)N[C@H](C(=O)N[C@@H](CC(C)C)C(=O)N[C@@H](C)C(=O)N[C@@H](CCC(N)=O)C(=O)N[C@H](C(N)=O)C(C)C)[C@@H](C)CC)[C@@H](C)O)[C@@H](C)CC)[C@@H](C)CC)C(C)C)C(C)C
The molecule B3 returned an EC50 [nM], 0% HSA of 0.11 nM and an EC50 [nM], 0.1% HSA of 5.7 nM.

B4: SEQ ID NO: 87 (peptide)
peptide: IVLSLDVPIKLK([AEEA-AEEA-γGlu-C18 diacid])QILLKQERQKKQREKAKTNKQILAQV-NH2
modifications: N-terminus assumed
SMILES: CC[C@H](C)[C@H](N)C(=O)N[C@H](C(=O)N[C@@H](CC(C)C)C(=O)N[C@@H](CO)C(=O)N[C@@H](CC(C)C)C(=O)N[C@@H](CC(=O)O)C(=O)N[C@H](C(=O)N1CCC[C@H]1C(=O)N[C@H](C(=O)N[C@@H](CCCCN)C(=O)N[C@@H](CC(C)C)C(=O)N[C@@H](CCCCNC(=O)COCCOCCNC(=O)COCCOCCNC(=O)CC[C@H](NC(=O)CCCCCCCCCCCCCCCCC(=O)O)C(=O)O)C(=O)N[C@@H](CCC(N)=O)C(=O)N[C@H](C(=O)N[C@@H](CC(C)C)C(=O)N[C@@H](CC(C)C)C(=O)N[C@@H](CCCCN)C(=O)N[C@@H](CCC(N)=O)C(=O)N[C@@H](CCC(=O)O)C(=O)N[C@@H](CCCNC(=N)N)C(=O)N[C@@H](CCC(N)=O)C(=O)N[C@@H](CCCCN)C(=O)N[C@@H](CCCCN)C(=O)N[C@@H](CCC(N)=O)C(=O)N[C@@H](CCCNC(=N)N)C(=O)N[C@@H](CCC(=O)O)C(=O)N[C@@H](CCCCN)C(=O)N[C@@H](C)C(=O)N[C@@H](CCCCN)C(=O)N[C@H](C(=O)N[C@@H](CC(N)=O)C(=O)N[C@@H](CCCCN)C(=O)N[C@@H](CCC(N)=O)C(=O)N[C@H](C(=O)N[C@@H](CC(C)C)C(=O)N[C@@H](C)C(=O)N[C@@H](CCC(N)=O)C(=O)N[C@H](C(N)=O)C(C)C)[C@@H](C)CC)[C@@H](C)O)[C@@H](C)CC)[C@@H](C)CC)C(C)C)C(C)C
In the case of B4, the EC50 [nM], 0% HSA is 0.23 nM and the EC50 [nM], 0.1% HSA was 16.2 nM.

B5: SEQ ID NO: 6 (peptide)
peptide: IVLSLDVPIGLK([γGlu-Palmitoyl])QKLLKQQRQRKERQQAEKNARILARV-NH2
modifications: N-terminus assumed
SMILES: CCCCCCCCCCCCCCCC(=O)N[C@@H](CCC(=O)NCCCC[C@H](NC(=O)[C@H](CC(C)C)NC(=O)CNC(=O)[C@@H](NC(=O)[C@@H]1CCCN1C(=O)[C@@H](NC(=O)[C@H](CC(=O)O)NC(=O)[C@H](CC(C)C)NC(=O)[C@H](CO)NC(=O)[C@H](CC(C)C)NC(=O)[C@@H](NC(=O)[C@@H](N)[C@@H](C)CC)C(C)C)C(C)C)[C@@H](C)CC)C(=O)N[C@@H](CCC(N)=O)C(=O)N[C@@H](CCCCN)C(=O)N[C@@H](CC(C)C)C(=O)N[C@@H](CC(C)C)C(=O)N[C@@H](CCCCN)C(=O)N[C@@H](CCC(N)=O)C(=O)N[C@@H](CCC(N)=O)C(=O)N[C@@H](CCCNC(=N)N)C(=O)N[C@@H](CCC(N)=O)C(=O)N[C@@H](CCCNC(=N)N)C(=O)N[C@@H](CCCCN)C(=O)N[C@@H](CCC(=O)O)C(=O)N[C@@H](CCCNC(=N)N)C(=O)N[C@@H](CCC(N)=O)C(=O)N[C@@H](CCC(N)=O)C(=O)N[C@@H](C)C(=O)N[C@@H](CCC(=O)O)C(=O)N[C@@H](CCCCN)C(=O)N[C@@H](CC(N)=O)C(=O)N[C@@H](C)C(=O)N[C@@H](CCCNC(=N)N)C(=O)N[C@H](C(=O)N[C@@H](CC(C)C)C(=O)N[C@@H](C)C(=O)N[C@@H](CCCNC(=N)N)C(=O)N[C@H](C(N)=O)C(C)C)[C@@H](C)CC)C(=O)O
B5 had an EC50 [nM], 0% HSA of 0.16 nM and an EC50 [nM], 0.1% HSA of 0.18 nM.

B6: SEQ ID NO: 89 (peptide)
peptide: IVLSLDVPIKLK([AEEA-AEEA-γGlu-C18 diacid])QILLKQERQKKQREQAKTN[Aib]QILAQV-NH2
modifications: N-terminus assumed
SMILES: CC[C@H](C)[C@H](N)C(=O)N[C@H](C(=O)N[C@@H](CC(C)C)C(=O)N[C@@H](CO)C(=O)N[C@@H](CC(C)C)C(=O)N[C@@H](CC(=O)O)C(=O)N[C@H](C(=O)N1CCC[C@H]1C(=O)N[C@H](C(=O)N[C@@H](CCCCN)C(=O)N[C@@H](CC(C)C)C(=O)N[C@@H](CCCCNC(=O)COCCOCCNC(=O)COCCOCCNC(=O)CC[C@H](NC(=O)CCCCCCCCCCCCCCCCC(=O)O)C(=O)O)C(=O)N[C@@H](CCC(N)=O)C(=O)N[C@H](C(=O)N[C@@H](CC(C)C)C(=O)N[C@@H](CC(C)C)C(=O)N[C@@H](CCCCN)C(=O)N[C@@H](CCC(N)=O)C(=O)N[C@@H](CCC(=O)O)C(=O)N[C@@H](CCCNC(=N)N)C(=O)N[C@@H](CCC(N)=O)C(=O)N[C@@H](CCCCN)C(=O)N[C@@H](CCCCN)C(=O)N[C@@H](CCC(N)=O)C(=O)N[C@@H](CCCNC(=N)N)C(=O)N[C@@H](CCC(=O)O)C(=O)N[C@@H](CCC(N)=O)C(=O)N[C@@H](C)C(=O)N[C@@H](CCCCN)C(=O)N[C@H](C(=O)N[C@@H](CC(N)=O)C(=O)NC(C)(C)C(=O)N[C@@H](CCC(N)=O)C(=O)N[C@H](C(=O)N[C@@H](CC(C)C)C(=O)N[C@@H](C)C(=O)N[C@@H](CCC(N)=O)C(=O)N[C@H](C(N)=O)C(C)C)[C@@H](C)CC)[C@@H](C)O)[C@@H](C)CC)[C@@H](C)CC)C(C)C)C(C)C
Regarding B6, the EC50 [nM], 0% HSA worked out at 0.3 nM and the EC50 [nM], 0.1% HSA was found to be 15.6 nM.

The record behind these values is patent US12679878B2, “CRF2 receptor agonists and their use in therapy” (SANOFI, priority 2020, dated 2026).
